The values below come from article PMC8257933.

The labels stand for the following.
B1: NTCP wild type, NTCP-FLAG and NTCP-V5-His expressed in HEK293 cells [human] / NTCP wild type, NTCP-FLAG and NTCP-V5-His expressed in HEK293 cells [human] (parent)
chain 1: MEAHNASAPFNFTLPPNFGKRPTDLALSVILVFMLFFIMLSLGCTMEFSKIKAHLWKPKGLAIALVAQYGIMPLTAFVLGKVFRLKNIEALAILVCGCSPGGNLSNVFSLAMKGDMNLSIVMTTCSTFCALGMMPLLLYIYSRGIYDGDLKDKVPYKGIVISLVLVLIPCTIGIVLKSKRPQYMRYVIKGGMIIILLCSVAVTVLSAINVGKSIMFAMTPLLIATSSLMPFIGFLLGYVLSALFCLNGRCRRTVSMETGCQNVQLCSTILNVAFPPEVIGPLFFFPLLYMIFQLGEGLLLIAIFWCYEKFKTPKDKTKMIYTAATTEETIPGALGNGTYKGEDCSPCTA
chain 2: B1 chain 1

The variants in this assay derive from B1. Kind of assay: co-IP (IP anti-FLAG agarose, western blot anti-V5, ImageJ band quantification). To be noted: with NTCP wild type, HEK293 cells co-transfected with NTCP-FLAG and NTCP-V5-His, n = 3 independent experiments, parent: 100, read off a plot. (In general: Immunoblotting shows a protein as a band on a membrane.)
In the case of chain 1 MEAHNASAPFNFTLPPNFGKRPTDLALSVILVFMLFFIMLSLGCTMEFSKIKAHLWKPKGLAIALVAQYGIMPLTAFVLGKVFRLKNIEALAILVCGCSPGGNLSNVFSLAMKGDMNLSIVMTTCSTFCALGMMPLLLYIYSRGIYDGDLKDKVPYKGIVISLVLVLIPCTIGIVLKSKRPQYMRYVIKGGMIIILLCSVAVTVLSAINVGKSIMFAMTPLLIATSSLMPFILFLLLYVLSALFCLNGRCRRTVSMETGCQNVQLCSTILNVAFPPEVIGPLFFFPLLYMIFQLGEGLLLIAIFWCYEKFKTPKDKTKMIYTAATTEETIPGALGNGTYKGEDCSPCTA [chain 1 G233L G237L], the percent of parent was 130 % of control. The same measure for chain 1 MEAHNASAPFNFTLPPNFGKRPTDLALSVILVFMLFFIMLSLGCTMEFSKIKAHLWKPKLLAILLVAQYGIMPLTAFVLGKVFRLKNIEALAILVCGCSPGGNLSNVFSLAMKGDMNLSIVMTTCSTFCALGMMPLLLYIYSRGIYDGDLKDKVPYKGIVISLVLVLIPCTIGIVLKSKRPQYMRYVIKGGMIIILLCSVAVTVLSAINVGKSIMFAMTPLLIATSSLMPFILFLLLYVLSALFCLNGRCRRTVSMETGCQNVQLCSTILNVAFPPEVIGPLFFFPLLYMIFQLGEGLLLIAIFWCYEKFKTPKDKTKMIYTAATTEETIPGALGNGTYKGEDCSPCTA [chain 1 G60L A64L G233L G237L]: 160 % of control; for chain 1 MEAHNASAPFNFTLPPNFGKRPTDLALSVILVFMLFFIMLSLGCTMEFSKIKAHLWKPKLLAILLVAQYGIMPLTAFVLGKVFRLKNIEALAILVCGCSPGGNLSNVFSLAMKGDMNLSIVMTTCSTFCALGMMPLLLYIYSRGIYDGDLKDKVPYKGIVISLVLVLIPCTIGIVLKSKRPQYMRYVIKGGMIIILLCSVAVTVLSAINVGKSIMFAMTPLLIATSSLMPFIGFLLGYVLSALFCLNGRCRRTVSMETGCQNVQLCSTILNVAFPPEVIGPLFFFPLLYMIFQLGEGLLLIAIFWCYEKFKTPKDKTKMIYTAATTEETIPGALGNGTYKGEDCSPCTA [chain 1 G60L A64L]: 110 % of control.
